Laboratory results: article PMC9253517 (The Journal of Experimental Medicine, 2022)

Biological target: SARS-CoV-2 Wuhan-Hu-1 NTD (SARS-CoV-2, UniProt P0DTC2 14-307)
Experiment: cell-based or functional assay

Binder | neutralisation IC50, WT (293TAce2)
JN033 (antibody, V domains shown) VH: not shown VL: DIQLTQSPFSLSASVGDRVTITCRASQGISSYLAWYQQKPGKAPKLLIYAASTLQSGVPSRFSGSGSGTEFTLTISSLQPEDFATYYCQQLNSYPPNTFGPGTKVDIK | > 1 µg/mL
JN105 (antibody, V domains shown) VH: QVQLVQSGAEVKKPGASVKVSCKASGYTFTSYGISWVRQAPGQGLEWMGWISAYNGNTNYAQKLQGRVTMTTDTSTSTAYMELRSLRSDDTAVYYCARDLQRAGPWADYDFWSGYYPPSNMDVWGQGTTVTVSS VL: not shown | > 1 µg/mL
JN226 (antibody, V domains shown) VH: QVQLVQSGAEVKKPGSSVKVSCKASGGTFSSYAISWVRQAPGQGLEWMGGIIPIFGTANYAQKFQGRVTITADKSTSTAYMELSSLRSEDTAVYYCAMLGAGSPLRGIFGVVMTDGDGMDVWGQGTTVTVSS VL: QSVLTQPPSVSAAPGQKVTISCSGSSSNIGNNYVSWYQQLPGTAPKLLIYDNNKRPSGIPDRFSGSKSGTSATLGITGLQTGDEADYYCGTWDSSLSAGRVFGGGTKLTVL | > 1 µg/mL
JN010 (antibody, V domains shown) VH: EVQLVESGGDLIQPGGSLKLSCAASGVTVSSNYMTWVRQAPGKGLEWVSLIYSGGSTFYADSVKGRFTISRDNSKNTLYLLMNSLRVEDTAVYYCARDLRYYGMDVWGQGTTVTVSS VL: QTVVTQEPSFSVFPGGTVTLTCGLSSGSVSTNNYPTWYQQTPGQPPRTLIYSTDTRSSGVPDRFFGSILGNKAALTITGTQADDESHYYCVLLVGSGANAKWVFGGGTKLTVL | > 1 µg/mL
JN003 (antibody, V domains shown) VH: EVQLVESGGGLVQPGGSLRLSCAASGFTFNSYWMTWIRQAPGKGLEWVANIAPDGSDTYYVDSVRGRFIISRDNAKNSLYLHMNSLRPEDTAVYYCANTPAAVGEYWGQGTLVTVSS VL: QAVVTQEPSLSVSPGGTVTVTCGLSSGSVSTNNYPTWYQQTPGQPPRTLMYSTNTRSPGVLDRFSGSILGNKAALTITGAQADDESHYYCVLLVGSGANAKWVFGGGTKLTVL | > 1 µg/mL
JN030 (antibody, V domains shown) VH: EVQLVESGGGLVKPGGSLRLSCAASGFTFSNYNMNWVRQAPGKGLEWVSSISTSGSFIYYADSVKGRFTISRDNAKNSLYLQMNSLRAEDTAVYYCARDTTPYSSGWYLWYFDLWGRGTLVTVSS VL: not shown | 0.348 µg/mL
JN219 (antibody, V domains shown) VH: QLQLQESGPGLVKPSETLSLTCTVSGGSISSSSYYWGSYYWGWIRQPPGKGLEWIASIYYSGTTYYNPSLKSRVTISVDTSKNQFSLKLSSVTAADTAVYYCASRYCSGGSCSLDYWGQGTLVTVSS VL: QSALTQPRSLSGSPGQSVTISCTGTSSDVGSYNYVSWYQQHPGKAPKLMIYDVSKRPSGVPDRFSGSKSGNTASLTISGLQAEDEADYYCCSYAGSYTLWVFGGGTKLTVL | > 1 µg/mL
JN015 (antibody, V domains shown) VH: QLQLQESGPGLVKPSETLSLTCTVSGGSISGSSYYWGWIRQPPGKGLEWFGSIYYSGTTYYNPSLKSRVAISVDTSKKQFSLKLSSVTAADTAVYYCAARYFDWSVEYWGQGTLVTVSS VL: QSALTQPRSVSGSPGQSVTISCTGTSSDVGGYNYVSWYQQQPGKAPKLMIYDVSKRPSGVPDRFSGSKSGNTASLTISGLQAEDEADYHCCSYAGSYTYWLFGGGTKLTVL | > 1 µg/mL
JN026 (antibody, V domains shown) VH: QVQLQESGPGLVKPSETLSLTCTVSGGSISSYYWSWIRQPPGKGLEWIGYIYYSGSTNYNPSLKSRVTISVDTSKNQFSLKLSSVTAADTAVYYCARHSLTYYYDRSDYKGAFDIWGQGTMVTVSS VL: not shown | > 1 µg/mL
JN022 (antibody, V domains shown) VH: QVQLQESGPGLVKPSETLSLTCTVSGDSIRNYYWSWIRQPPGKGLEWMGYIYYSGSTNYNPSLKSRVTISVDTSKNQFSLKLSSVTAADTAVYYCARHSLTYYYDSSDYKGAFDIWGQGTMVTVSS VL: not shown | > 1 µg/mL
JN012 (antibody, V domains shown) VH: QLQLQESGPGLVKPSETLSLTCTVSGGSISSGSYYWVWIRQPPGKGLEWIGSVYYSGTTYYNPSLKSRVTISIDTSKNQFSLRLSSVTAADTAVYYCATNNYSFLTGYYVLDYWGQGTLVTVSS VL: SYELTQPPSVSVSLGQMARITCSGEALPKTYAYWYQQKPGQFPVLVIYKDSERPSGIPERFSGSRSGTIVTLTISGVQAEDEADYYCLSTDISGTWVFGGGTKLTVL | > 1 µg/mL
JN227 (antibody, V domains shown) VH: QLQLQESGPGLVKPSETLSLTCTVSGGSISSSSYYWGWIRQPPGKGLEWIGSIYYSGSTYYNPSLKSRVTISVDTSKNQFSLKLSSVTAADTAVYYCAREGVITIFGVAQFDYWGQGTLVTVSS VL: not shown | > 1 µg/mL
JN013 (antibody, V domains shown) VH: QLQLQESGPGLVKPSETLSLTCTVSGGSISSSSYYWGWIRQPPGKGLEWIGSIYYSGSTYYNPSLKSRVTISVDTSKKQFSLKLSSVTAADTAVYYCARTYYDYIWGSLLGDFWGQGTLVTVSS VL: QSALTQPRSVSGSPGQSVTISCTGTSSDVGGYNYVSWYQQHPGKAPKLMIYDVSKRPSGVPDRFSGSKSGNTASLTISGLQAEDEADYYCCSYAGSYWVFGGGTKLTVL | > 1 µg/mL
JN017 (antibody, V domains shown) VH: EVQLVESGGGLVQPGGSLRLSCAASGFTFTNHWMTWVRQAPGRGLEWVANIEGDGSDKYYVDSVKGRFTISRDNAKYSLYLHMNSLRGEDTAVYYCARHSGTYHGLDYWGQGTLVTVSS VL: QSALTQPRSVSGSPGQSVTISCTGTSSDVGGYNYVSWYQEHPGKAPKLMIYDVSKRPSGVPDRFSSSKSGNTASLTISGLQAEDEADYYCYAFAGTTWMFGGGTKLTVL | > 1 µg/mL
JN232 (antibody, V domains shown) VH: EVQLVQSGAEVKKPGESLNISCKGSGYSFTNYWIGWVRQMPGKGLEWMGIIYPGDSDTRYSPSFQGQVTISADKSISTVFLQWSSLKASDTAMYYCVRHDVLAVLMGGVTFDIWGQGTMVTVSS VL: EIVLTQSPGTLSLSPGERATLSCRASQSISSSYLAWYQQKSGQAPRLLIYGASSRATGIPDRFSGSGSGTDFTLTISRLEPEDFAVYYCQQYGGSPMYTFGQGTKLEIK | > 1 µg/mL
JN222 (antibody, V domains shown) VH: EVQLVESGGGLVQPGGSLRLSCAASGFTFSRYWMSWVRQAPGKGLEWVANIKGDGKYYVDSLKGRFTISGDNAENSLYLQMNSLRAEDTAMYYCARYLAETGALDIWGQGTMVTVSS VL: QSALTQPRAVSGSPGQSVTISCTGTSSDVGGYNYVSWYQQHPGKAPKLMIYDVSKRPSGVPDRFSGSKSGNTASLTISGLQAEDEADYYCYSFSGRYTSYVFGIGTKVTVL | > 1 µg/mL
JN018 (antibody, V domains shown) VH: QVQLQESGPGLVKPSETLSLTCTVSGGSISGSYWSWMRQPAGKPLEWIGRIYVSGSYNRNPSLSSRVTVSEDTAKNQISLRLTSVTAADTAVYYCAREIMGWYFDLWGRGTLVTVSS VL: EIVMTQSPGTLSVSPGERATLSCRASQSVRSSLAWYQQKPGQAPRLLIYDASTRATGIPARFSGSGSGTEFTLTISSLQSEDFAIYLCQQYYNWPSYTFTQGTKLEIK | > 1 µg/mL
JN218 (antibody, V domains shown) VH: EVQLVESGGGLVKPGGSLRLSCAASGFTFSSYTMNWVRQAPGKGLEWVSSISTGSSNIYYTDSVKGRFTISRDNARNSLSLQMNSLRAEDTAVYYCAREGRFIGTGYWSDFSYALDVWGQGTTVTVSS VL: EIVLTQSPGTLSLSPGERATLSCRASQSVSSSSLAWYQQTPGQAPRLLIYGASSRATGIPDRFSGSGSGTDFTLTISRLEPEDFAVYYCQQYGSSVGAFGQGTKLEIK | > 1 µg/mL
JN028 (antibody, V domains shown) VH: EVQLVESGGGLVQPGGSLRLSCAASGFTFSSYSMNWVRQAPGKGLEWVSYISSSSSTIYYADSVKGRFTISRDNAKNSLYLQMNSLRDEDTAVYYCAPLRVLGGMDVWGQGTTVTVSS VL: SYELTQPPSVSVSPGQTARIICSGDALPKQYAYWYQQKPGQAPVLVIYKDSERPSGIPERFSGSSSGTTVTLTISGVQAEDEADYYCQSADSSGWVFGGGTKLTVL | > 1 µg/mL
JN005 (antibody, V domains shown) VH: QVQLVESGGGLVEPGGSLRLSCAASGFTFSDYFMSWIRQAPGRGLEWVSFITTSGSTIYYADSVKGRFTISRDNAKNSLYLQMNSLRAEDTAVYYCARRSGGYYDILTGPYGLDVWGQGTTVTVSS VL: not shown | > 1 µg/mL
JN225 (antibody, V domains shown) VH: EVQLVESGGGLVQPGGSLRLSCGASGFTLGSFWMHWVRQAPGKGLEWVGDINGDGSAKYYADSVRGRFTISRDNAENSLFLQMNSLRVEDTALYYCARGAAWLDYWGQGTLVTVSS VL: QSALTQPASVSGSPGQSITISCTGTSSDVGGYNYVSWYQQHPGKAPKLIIYDVTNRPSGVSNRFSGSKSGNTASLTISGLQAEDEADYFCDSYRSSSPPSYVFGTGTKVTVL | > 1 µg/mL
JN236 (antibody, V domains shown) VH: QVQLQESGPRLVKPSETLSLTCTVSGGSINDYYWSWIRQPPGKGLEYLGYIYYTGTTNYNPSLQSRLTMSVDTSKNQFSLKVNYVSAADTAVYYCARHSTGGSYPLDSWGRGILVTVSS VL: DIVMTQSPLTLPVTPGEPASISCRSSQSLLHSNGHNYVDWYLQKPGQSPQLLIHLGSNRASGVPDRFSGSGSGTDFTLKISRVEAEDVGVYFCMQALQSRTFGQGTKVEIK | > 1 µg/mL
JN223 (antibody, V domains shown) VH: EVQLLESGGGLVQPGGSLRLSCAASRFTFSNFAMSWVRQAPGKGLEWVSAISGSGGSTYYADSVKGRFIISRDNSKNTLFLQMNSLRAEDTAVYFCAKDLPYDNTGARFDYWGQGTLVTVSS VL: SYELTQPPSVSVSPGQTARITCSGDALPKKYAYWYQQKSGQAPVLVIYEDSKRPSGIPERFSGSSSGTMATLTISGAQVEDEADYYCYSTDSTGNHRGVFGGGTKLTVL | > 1 µg/mL
JN008 (antibody, V domains shown) VH: EVQLVESGGDLIQPGGSLRLSCAASGFTVSSNYMNWVRQAPGKGLEWVSIIYSGGSTFYADSVKGRFTISRDNSKNTLYLQMNSLRVEDTATYFCARSYGDYYFDSWGQGTLVTVSS VL: EIVLTQSPATLSLSPGERATLSCRASQSVSSYLAWYQQKPGQAPRLLIYDASNRATGIPARFSGSGSGTDFTLTISSLEPEDFAVYYCQQRSNWPPSFTFGPGTKVDIK | > 1 µg/mL
